The values that follow come from US7163817 (COUNCIL OF SCIENTIFIC AND INDUSTRIAL RESEARCH A NEW DEHLI …, dated 2007).

The target of experiment [1] is T1, human fibrin (immobilised, fibrin-Sepharose) (human, UniProt P02671 36-629; P02675 45-491; P02679 27-437).
T1 construct: Fibrin coupled to Sepharose beads; Its preparation and chain limits are not described; also called human fibrin-Sepharose
T1 sequence 1: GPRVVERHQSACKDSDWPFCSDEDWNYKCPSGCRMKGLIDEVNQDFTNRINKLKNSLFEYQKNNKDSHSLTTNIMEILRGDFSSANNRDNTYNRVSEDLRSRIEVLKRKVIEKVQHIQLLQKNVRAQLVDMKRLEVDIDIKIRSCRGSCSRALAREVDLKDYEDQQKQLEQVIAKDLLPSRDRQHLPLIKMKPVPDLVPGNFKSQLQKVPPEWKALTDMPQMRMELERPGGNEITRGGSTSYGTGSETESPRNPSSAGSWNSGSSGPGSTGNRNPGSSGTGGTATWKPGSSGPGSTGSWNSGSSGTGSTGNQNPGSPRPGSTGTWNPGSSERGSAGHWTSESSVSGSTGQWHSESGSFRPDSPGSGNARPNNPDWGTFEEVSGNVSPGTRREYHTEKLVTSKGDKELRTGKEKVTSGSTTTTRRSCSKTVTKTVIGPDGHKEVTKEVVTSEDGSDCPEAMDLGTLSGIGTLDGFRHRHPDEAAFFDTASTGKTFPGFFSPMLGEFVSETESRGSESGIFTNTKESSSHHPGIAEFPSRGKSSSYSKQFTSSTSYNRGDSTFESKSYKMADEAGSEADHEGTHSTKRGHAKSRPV
T1 sequence 2: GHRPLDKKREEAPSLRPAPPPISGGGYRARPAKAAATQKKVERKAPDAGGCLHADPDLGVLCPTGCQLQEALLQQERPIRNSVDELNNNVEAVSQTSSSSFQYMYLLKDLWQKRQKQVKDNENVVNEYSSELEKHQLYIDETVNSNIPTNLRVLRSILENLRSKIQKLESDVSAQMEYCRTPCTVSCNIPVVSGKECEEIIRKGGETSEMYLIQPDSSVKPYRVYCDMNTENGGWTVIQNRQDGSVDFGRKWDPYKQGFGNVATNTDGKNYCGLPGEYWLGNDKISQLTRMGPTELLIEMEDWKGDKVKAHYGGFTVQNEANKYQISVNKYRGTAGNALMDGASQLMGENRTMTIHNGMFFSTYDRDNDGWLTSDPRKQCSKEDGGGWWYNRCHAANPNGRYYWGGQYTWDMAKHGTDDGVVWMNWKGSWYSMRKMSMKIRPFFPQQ
T1 sequence 3: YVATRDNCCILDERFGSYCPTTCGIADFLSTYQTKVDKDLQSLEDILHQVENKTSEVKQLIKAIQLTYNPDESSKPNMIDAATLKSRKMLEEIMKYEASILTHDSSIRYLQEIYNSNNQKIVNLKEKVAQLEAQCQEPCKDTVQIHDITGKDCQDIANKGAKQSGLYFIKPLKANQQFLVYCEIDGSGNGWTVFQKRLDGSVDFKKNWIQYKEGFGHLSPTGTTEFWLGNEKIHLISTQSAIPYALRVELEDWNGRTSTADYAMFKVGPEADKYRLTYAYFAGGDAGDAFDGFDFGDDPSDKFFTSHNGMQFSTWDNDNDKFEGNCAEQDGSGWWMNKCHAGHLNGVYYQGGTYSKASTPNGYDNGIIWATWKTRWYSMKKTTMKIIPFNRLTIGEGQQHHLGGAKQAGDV
The experiment in a line: refolding with fibrin-Sepharose beads; washes with binding buffer and 2 M urea, elution with 6 M urea.

Experiment [2] concerns the target T1, human fibrin (immobilised, …). The experiment in a line: fibrin-Sepharose affinity chromatography; washes with binding buffer and 2 M urea, elution with 6 M urea.

B1: SK-FBD(1,2) chimeric protein (other)
chain: MIAGPEWLLDRPSVNNSQLVVSVAGTVEGTNQDISLKFFEIDLTSRPAHGGKTEQGLSPKSKPFATDSGAMSHKLEKADLLKAIQEQLIANVHSNDDYFEVIDFASDATITDRNGKVYFADKDGSVTLPTQPVQEFLLSGHVRVRPYKEKPIQNQAKSVDVEYTVQFTPLNPDDDFRPGLKDTKLLKTLAIGDTITSQELLAQAQSILNKNHPGYTIYERDSSIVTHDNDIFRTILPMDQEFTYRVKNREQAYRINKKSGLNEEINNTDLISEKYYVLKKGEKPYDPFDRSHLKLFTIKYVDVDTNELLKSEQLLTASERNLDFRDLYDPRDKAKLLYNNLDAFGIMDYTLTGKVEDNHDDTNRIITVYMGKRPEGENASYHLAGGGQAQQMVQPQSPVAVSQSKPGCYDNGKHYQINQQWERTYLGNVLVCTCYGGSRGFNCESKPEAEETCFDKYTGNTYRVGDTYERPKDSMIWDCTCIGAGRGRISC
notes: Start residue 1 is inferred from primer MY-10, which hybridises at the natural TG site QAQQMV
Take B1: the “fibrin-bound protein eluted with 6 M urea” value in experiment [1] was around 4 mg.

B2: SK control (streptokinase, fibrin-Sepharose experiment) (other)
chain: IAGPEWLLDRPSVNNSQLVVSVAGTVEGTNQDISLKFFEIDLTSRPAHGGKTEQGLSPKSKPFATDSGAMSHKLEKADLLKAIQEQLIANVHSNDDYFEVIDFASDATITDRNGKVYFADKDGSVTLPTQPVQEFLLSGHVRVRPYKEKPIQNQAKSVDVEYTVQFTPLNPDDDFRPGLKDTKLLKTLAIGDTITSQELLAQAQSILNKNHPGYTIYERDSSIVTHDNDIFRTILPMDQEFTYRVKNREQAYRINKKSGLNEEINNTDLISEKYYVLKKGEKPYDPFDRSHLKLFTIKYVDVDTNELLKSEQLLTASERNLDFRDLYDPRDKAKLLYNNLDAFGIMDYTLTGKVEDNHDDTNRIITVYMGKRPEGENASYHLAYDKDRYTEEEREVYSYLRYTGTPIPDNPNDK
Take B2: the binding result in experiment [2] is given as “no binding”.
